{"source": "patent US20110152352A1", "about": "(TUFTS UNIVERSITY, published 2011)", "binders": {"B1": {"name": "RNA helicase p68 (human p68 cDNA construct, expressed in transfected Cos7 cells) (enzyme, UniProt P17844 1-614, looked up)", "chain": "MSGYSSDRDRGRDRGFGAPRFGGSRAGPLSGKKFGNPGEKLVKKKWNLDELPKFEKNFYQEHPDLARRTAQEVETYRRSKEITVRGHNCPKPVLNFYEANFPANVMDVIARQNFTEPTAIQAQGWPVALSGLDMVGVAQTGSGKTLSYLLPAIVHINHQPFLERGDGPICLVLAPTRELAQQVQQVAAEYCRACRLKSTCIYGGAPKGPQIRDLERGVEICIATPGRLIDFLECGKTNLRRTTYLVLDEADRMLDMGFEPQIRKIVDQIRPDRQTLMWSATWPKEVRQLAEDFLKDYIHINIGALELSANHNILQIVDVCHDVEKDEKLIRLMEEIMSEKENKTIVFVETKRRCDELTRKMRRDGWPAMGIHGDKSQQERDWVLNEFKHGKAPILIATDVASRGLDVEDVKFVINYDYPNSSEDYIHRIGRTARSTKTGTAYTFFTPNNIKQVSDLISVLREANQAINPKLLQLVEDRGSGRSRGRGGMKDDRRDRYSAGKRGGFNTFRDRENYDRGYSSLLKRDFGAKTQNGVYSAANYTNGSFGSNFVSAGIQTSFRTGNPTGTYQNGYDSTQQYGSNVPNMHNGMNQQAYAYPATAAAPMIGYPMPTGYSQ", "notes": "Present in nuclear extracts or total lysates of Cos7 cells transfected with the p68 construct; also called Ddx5; DDX5"}, "B2": {"name": "inhibitor Smad6 (other, UniProt O43541 1-496, looked up)", "chain": "MFRSKRSGLVRRLWRSRVVPDREEGGSGGGGGGDEDGSLGSRAEPAPRAREGGGCGRSEVRPVAPRRPRDAVGQRGAQGAGRRRRAGGPPRPMSEPGAGAGSSLLDVAEPGGPGWLPESDCETVTCCLFSERDAAGAPRDASDPLAGAALEPAGGGRSREARSRLLLLEQELKTVTYSLLKRLKERSLDTLLEAVESRGGVPGGCVLVPRADLRLGGQPAPPQLLLGRLFRWPDLQHAVELKPLCGCHSFAAAADGPTVCCNPYHFSRLCGPESPPPPYSRLSPRDEYKPLDLSDSTLSYTETEATNSLITAPGEFSDASMSPDATKPSHWCSVAYWEHRTRVGRLYAVYDQAVSIFYDLPQGSGFCLGQLNLEQRSESVRRTRSKIGFGILLSKEPDGVWAYNRGEHPIFVNSPTLDAPGGRALVVRKVPPGYSIKVFDFERSGLQHAPEPDAADGPYDPNSVRISFAKGWGPCYSRQFITSCPCWLEILLNNPR"}, "B3": {"name": "GST-Smad1 (MH1 domain) fusion protein (other, UniProt Q15797 12-136, looked up)", "chain": "PAVKRLLGWKQGDEEEKWAEKAVDALVKKLKKKKGAMEELEKALSCPGQPSNCVTIPRSLDGRLQVSHRKGLPHVIYCRVWRWPDLQSHHELKPLECCEFPFGSKQKEVCINPYHYKRVESPVLP", "notes": "domain: MH1; also called s1-n219; amino-terminal MH1 domain of Smad1; not shown: glutathione S-transferase (GST) tag"}}, "key": {"[1]": {"biological_target": "T1, GST-Smad4(FL) fusion protein (UniProt P08515 1-218 = GST; Q13485 1-552)", "T1 construct": "also called s4", "T1 sequence (P08515 1-218, tags or fused parts left off)": "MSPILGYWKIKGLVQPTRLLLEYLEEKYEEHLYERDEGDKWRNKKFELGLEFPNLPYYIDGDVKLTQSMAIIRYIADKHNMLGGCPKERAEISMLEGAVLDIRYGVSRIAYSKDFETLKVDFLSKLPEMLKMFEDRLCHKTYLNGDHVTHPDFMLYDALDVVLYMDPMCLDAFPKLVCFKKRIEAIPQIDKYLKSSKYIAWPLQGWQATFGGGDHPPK", "experiment": "GST pull-down from nuclear extracts of p68-transfected Cos7 cells, immunoblot with anti-p68"}, "[2]": {"biological_target": "B1", "experiment": "in vitro pull-down, data not shown"}, "[3]": {"biological_target": "B1", "experiment": "GST pull-down from nuclear extracts of p68-transfected Cos7 cells, immunoblot with anti-p68"}}}
{"binder": "B1", "values": [{"measurement": "binding result", "setting": "[1]", "value": "no binding"}]}
{"binder": "B2", "values": [{"measurement": "binding result", "setting": "[2]", "value": "no binding"}]}
{"binder": "B3", "values": [{"measurement": "binding result", "setting": "[3]", "value": "no binding"}]}
